{"source": "patent US10472652B2", "about": "“Chemical engineering processes and apparatus for the synthesis of compounds” (TEEWINOT T[…], priority 2013, dated 2019)", "molecules": {"B1": {"name": "Spe THC #23: cell free supernatant with THCA synthase from a pPink yeast colony transformed with Spe I linearized THCA synthase plasmid (protein, UniProt Q8GTB6 29-545, looked up)", "Tetrahydrocannabinolic acid …": "NPRENFLKCFSKHIPNNVANPKLVYTQHDQLYMSILNSTIQNLRFISDTTPKPLVIVTPSNNSHIQATILCSKKVGLQIRTRSGGHDAEGMSYISQVPFVVVDLRNMHSIKIDVHSQTAWVEAGATLGEVYYWINEKNENLSFPGGYCPTVGVGGHFSGGGYGALMRNYGLAADNIIDAHLVNVDGKVLDRKSMGEDLFWAIRGGGGENFGIIAAWKIKLVAVPSKSTIFSVKKNMEIHGLVKLFNKWQNIAYKYDKDLVLMTHFITKNITDNHGKNKTTVHGYFSSIFHGGVDSLVDLMNKSFPELGIKKTDCKEFSWIDTTIFYSGVVNFNTANFKKEILLDRSAGKKTAFSIKLDYVKKPIPETAMVKILEKLYEEDVGAGMYVLYPYGGIMEEISESAIPFPHRAGIMYELWYTASWEKQEDNEKHINWVRSVYNFTTPYVSQNPRLAYLNYRDLDLGKTNHASPNNYTQARIWGEKYFGKNFNRLVKVKTKVDPNNFFRNEQSIPPLPPHHH", "modifications": "yeast culture supernatant", "notes": "cell free supernatant with THCA synthase from a pPink yeast colony transformed with Spe I linearized THCA synthase plasmid"}}, "target": "T1, THCA synthase (Cannabis sativa, UniProt Q8GTB6)", "T1 construct": "His-tag (C); made in house; host or cells: Pichia pastoris (PichiaPink, pPink-HC vector), secreted into the medium; cell-free T3 supernatant used", "T1 sequence (Q8GTB6 29-545)": "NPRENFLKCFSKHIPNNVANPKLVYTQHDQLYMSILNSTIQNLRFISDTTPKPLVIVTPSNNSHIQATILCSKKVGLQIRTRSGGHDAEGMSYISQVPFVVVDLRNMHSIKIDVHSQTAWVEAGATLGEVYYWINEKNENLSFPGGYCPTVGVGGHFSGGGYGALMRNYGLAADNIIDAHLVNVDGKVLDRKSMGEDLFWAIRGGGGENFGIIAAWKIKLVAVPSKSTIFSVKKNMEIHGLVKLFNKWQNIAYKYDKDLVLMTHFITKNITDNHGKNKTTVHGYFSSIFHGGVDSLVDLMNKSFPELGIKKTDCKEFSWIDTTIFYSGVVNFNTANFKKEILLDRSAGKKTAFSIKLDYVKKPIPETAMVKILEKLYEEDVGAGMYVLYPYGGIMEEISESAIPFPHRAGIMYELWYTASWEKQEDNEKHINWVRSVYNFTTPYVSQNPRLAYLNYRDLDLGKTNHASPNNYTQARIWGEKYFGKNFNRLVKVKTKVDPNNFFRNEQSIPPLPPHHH", "assay": "catalytic activity of THCA synthase from independent colonies of transformed pPink yeast cells (conversion of CBGA to THCA)", "type": "biochemical", "conditions": "25 μl cell free supernatant of T3 sample, 100 mM citrate buffer, 10% DMSO, final pH 5.0, 2 hours at 30° C.", "procedure": "After 24 hours a 100 μL of the cell sample was removed to which was added 100 μL of 40% methanol to induce enzyme production. This methanolic sample was then centrifuged at 12,000 rpm for 5 minutes and the supernatant and pellet were saved as the T1 sample. A second culture sample was obtained after a 48 hour incubation period and treated with methanol as described above. After centrifugation, the supernatant and pellet are saved as the T2 sample. At 72 hours the entire incubation mixture is treated with an appropriate volume of 40% methanol. The supernatant and pellet obtained from methanolic treatment of the culture after a 72 hour incubation period is labeled as T3. The T3 supernatant was spun through an Amicon 30 kD protein filter and analyzed for protein using an SDS-PAGE gel.\nThe catalytic activity of THCA synthase was measured by incubating 25 μl of the cell free supernatant from a T3 sample with 25 μl of a 1 mg/ml CBGA stock in 200 μl of a 100 mM citrate buffer at pH 4.8 having 10% DMSO for 2 hours at 30° C. The final concentration of CBGA in the reaction mixture was 0.1 mg/ml and the final pH is 5.0. Table 4 illustrates the data related to the catalytic activity of THCA synthase obtained from independent colonies of transformed pPink yeast cells, namely. pPink yeast cells that were transformed using linearized THCA synthase plasmids. Culture samples that converted greater than 20% of the substrate CBGA to product THCA were selected for scale up."}
{"molecule": "B1", "values": [{"measurement": "% Conversion of CBGA to THCA in reaction containing 0.1 mg/ml CBGA.", "result": 18.7, "unit": "%"}]}
